Molecular target: the molecule itself
Experiment: cross-linking

B1: His6-tagged Hsp90β CTD (530–724) (domain or fragment)
chain: not shown
**Q.** Does B1 bind?
**A.** Result: binds
